Experimental data published in patent US20190111149A1, “ANTI-EGFR ANTIBODY DRUG CONJUGATE” (priority 2016, published 2019).

Key:
[1] = target: Photo optimized trastuzumab; meditope enabled (Tmab); assay: BLI Octet, antibody on anti-human Fc tip, peptide 37 nM
MBI_CD19_1; (SAR3419) [2] = assay: as above
MBI_CD19_2; (MOR208) [3] = assay: as above
[4] = target: Meditope enabled Ocaratuzumab; assay: as above
[5] = target: Photo optimized trastuzumab; meditope enabled (Tmab); assay: BLI Octet, antibody on anti-human Fc tip, peptide […]
MBI_CD19_1; (SAR3419) [6] = assay: as above
[7] = target: Meditope enabled Clivatuzumab; assay: as above
MBI_CD19_2; (MOR208) [8] = assay: as above
[9] = target: Meditope enabled Ocaratuzumab; assay: as above
[10] = target: Photo optimized trastuzumab; meditope enabled (Tmab); assay: BLI Octet, antibody on anti-human Fc tip, peptide 333 nM
MBI_CD19_1; (SAR3419) [11] = assay: as above
[12] = target: Meditope enabled Clivatuzumab; assay: as above
MBI_CD19_2; (MOR208) [13] = assay: as above

MBI_CD19_2; (MOR208), sequence (chain, as listed by the source, chain 1 of 2): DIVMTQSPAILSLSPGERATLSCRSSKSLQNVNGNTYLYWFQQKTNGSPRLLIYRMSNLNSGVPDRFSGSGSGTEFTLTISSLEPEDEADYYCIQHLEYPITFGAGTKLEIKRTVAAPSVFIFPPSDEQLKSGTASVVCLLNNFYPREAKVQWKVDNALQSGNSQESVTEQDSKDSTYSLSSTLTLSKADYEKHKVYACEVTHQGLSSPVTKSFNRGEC
MBI_CD19_2; (MOR208), sequence (chain, as listed by the source, chain 2 of 2): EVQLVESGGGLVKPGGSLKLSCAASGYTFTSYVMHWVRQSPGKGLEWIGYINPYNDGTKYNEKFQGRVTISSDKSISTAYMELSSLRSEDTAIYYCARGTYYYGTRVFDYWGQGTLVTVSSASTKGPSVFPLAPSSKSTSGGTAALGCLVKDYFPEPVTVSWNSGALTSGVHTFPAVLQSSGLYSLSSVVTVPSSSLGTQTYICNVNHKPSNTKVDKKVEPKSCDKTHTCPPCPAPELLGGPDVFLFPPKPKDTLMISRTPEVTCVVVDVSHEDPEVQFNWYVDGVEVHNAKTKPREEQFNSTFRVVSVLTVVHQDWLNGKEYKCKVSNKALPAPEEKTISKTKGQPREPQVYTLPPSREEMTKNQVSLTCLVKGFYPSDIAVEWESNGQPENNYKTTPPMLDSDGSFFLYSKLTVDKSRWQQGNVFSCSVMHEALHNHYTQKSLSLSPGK
Photo optimized trastuzumab; meditope enabled (Tmab), sequence (chain, as listed by the source, chain 1 of 2): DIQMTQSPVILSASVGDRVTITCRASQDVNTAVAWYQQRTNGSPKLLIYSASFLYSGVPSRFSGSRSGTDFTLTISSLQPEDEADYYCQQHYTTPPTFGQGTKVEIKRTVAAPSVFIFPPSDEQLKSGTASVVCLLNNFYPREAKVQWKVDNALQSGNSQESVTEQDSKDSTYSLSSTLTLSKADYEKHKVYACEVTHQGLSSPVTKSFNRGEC
Photo optimized trastuzumab; meditope enabled (Tmab), sequence (chain, as listed by the source, chain 2 of 2): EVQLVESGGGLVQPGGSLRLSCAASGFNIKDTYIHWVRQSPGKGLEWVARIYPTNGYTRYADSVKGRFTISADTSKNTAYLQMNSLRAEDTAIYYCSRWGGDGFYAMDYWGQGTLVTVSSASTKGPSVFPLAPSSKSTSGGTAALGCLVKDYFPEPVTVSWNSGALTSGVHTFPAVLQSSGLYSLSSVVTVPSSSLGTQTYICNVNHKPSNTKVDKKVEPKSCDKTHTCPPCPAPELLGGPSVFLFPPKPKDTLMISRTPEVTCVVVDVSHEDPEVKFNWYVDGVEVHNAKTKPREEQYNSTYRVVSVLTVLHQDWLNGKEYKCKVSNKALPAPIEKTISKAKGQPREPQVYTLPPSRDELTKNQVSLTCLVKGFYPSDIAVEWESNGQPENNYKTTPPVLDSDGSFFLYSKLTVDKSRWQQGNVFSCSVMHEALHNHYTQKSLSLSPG
MBI_CD19_1; (SAR3419), sequence (chain, as listed by the source, chain 1 of 2): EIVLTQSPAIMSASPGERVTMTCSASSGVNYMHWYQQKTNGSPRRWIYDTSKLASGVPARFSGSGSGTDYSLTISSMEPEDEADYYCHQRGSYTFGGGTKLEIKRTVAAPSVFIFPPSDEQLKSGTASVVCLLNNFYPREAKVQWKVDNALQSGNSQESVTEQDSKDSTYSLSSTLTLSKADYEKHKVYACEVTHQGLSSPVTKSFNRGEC
MBI_CD19_1; (SAR3419), sequence (chain, as listed by the source, chain 2 of 2): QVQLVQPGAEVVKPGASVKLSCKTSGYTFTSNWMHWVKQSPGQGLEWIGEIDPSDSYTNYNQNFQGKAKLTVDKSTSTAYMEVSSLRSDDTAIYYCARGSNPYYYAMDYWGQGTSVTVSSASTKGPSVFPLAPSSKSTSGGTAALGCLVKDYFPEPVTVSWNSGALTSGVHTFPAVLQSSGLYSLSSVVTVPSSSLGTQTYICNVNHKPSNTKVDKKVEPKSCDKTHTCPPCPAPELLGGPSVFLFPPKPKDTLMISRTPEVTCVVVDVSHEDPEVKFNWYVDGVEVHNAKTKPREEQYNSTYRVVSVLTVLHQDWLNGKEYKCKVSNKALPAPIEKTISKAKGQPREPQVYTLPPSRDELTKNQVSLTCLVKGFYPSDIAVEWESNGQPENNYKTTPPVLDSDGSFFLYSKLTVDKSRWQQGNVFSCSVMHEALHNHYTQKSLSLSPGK
Meditope enabled Ocaratuzumab, sequence (chain, as listed by the source, chain 1 of 2): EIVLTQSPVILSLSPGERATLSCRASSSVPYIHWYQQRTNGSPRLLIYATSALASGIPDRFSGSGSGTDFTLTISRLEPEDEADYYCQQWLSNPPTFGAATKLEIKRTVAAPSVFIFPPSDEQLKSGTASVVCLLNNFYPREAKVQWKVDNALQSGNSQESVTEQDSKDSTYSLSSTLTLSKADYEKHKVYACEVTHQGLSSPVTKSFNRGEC
Meditope enabled Ocaratuzumab, sequence (chain, as listed by the source, chain 2 of 2): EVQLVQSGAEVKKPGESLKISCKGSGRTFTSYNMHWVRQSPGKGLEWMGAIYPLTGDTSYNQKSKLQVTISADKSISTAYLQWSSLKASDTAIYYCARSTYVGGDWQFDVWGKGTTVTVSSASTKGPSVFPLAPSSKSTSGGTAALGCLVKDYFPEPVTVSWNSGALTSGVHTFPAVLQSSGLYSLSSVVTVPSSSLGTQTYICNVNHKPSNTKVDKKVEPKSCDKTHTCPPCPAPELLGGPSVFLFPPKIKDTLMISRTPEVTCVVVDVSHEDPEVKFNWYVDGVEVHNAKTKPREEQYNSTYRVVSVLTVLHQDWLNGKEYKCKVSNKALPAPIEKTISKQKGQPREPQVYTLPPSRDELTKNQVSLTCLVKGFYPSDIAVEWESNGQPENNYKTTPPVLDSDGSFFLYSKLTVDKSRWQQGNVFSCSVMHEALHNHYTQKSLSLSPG
Meditope enabled Clivatuzumab, sequence (chain, as listed by the source, chain 1 of 2): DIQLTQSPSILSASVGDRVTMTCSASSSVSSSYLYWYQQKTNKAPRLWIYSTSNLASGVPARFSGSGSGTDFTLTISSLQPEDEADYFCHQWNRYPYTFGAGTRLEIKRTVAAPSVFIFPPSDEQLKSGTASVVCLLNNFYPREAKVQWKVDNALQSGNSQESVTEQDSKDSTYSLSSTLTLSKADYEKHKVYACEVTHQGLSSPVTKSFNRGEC
Meditope enabled Clivatuzumab, sequence (chain, as listed by the source, chain 2 of 2): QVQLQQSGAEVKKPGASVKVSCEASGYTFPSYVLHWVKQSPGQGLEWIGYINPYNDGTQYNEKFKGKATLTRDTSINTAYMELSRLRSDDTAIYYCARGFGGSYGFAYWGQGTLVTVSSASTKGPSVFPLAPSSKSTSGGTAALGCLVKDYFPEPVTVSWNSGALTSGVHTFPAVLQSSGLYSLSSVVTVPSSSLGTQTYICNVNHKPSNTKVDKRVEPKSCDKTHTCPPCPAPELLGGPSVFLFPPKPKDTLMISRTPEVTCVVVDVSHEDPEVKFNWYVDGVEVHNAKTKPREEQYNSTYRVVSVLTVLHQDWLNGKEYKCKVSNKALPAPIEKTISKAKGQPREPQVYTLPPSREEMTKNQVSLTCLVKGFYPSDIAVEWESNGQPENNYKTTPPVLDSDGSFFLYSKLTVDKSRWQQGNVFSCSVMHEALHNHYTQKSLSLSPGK

Binder: CQFDLSTRRLRC (modifications not checked) [Peptide 22: DM1 conjugated cQFD (cQFD-DM1)]
- Kd [1]: 2.62 nM
- Kd (MBI_CD19_1; (SAR3419) [2]): < 0.001 nM
- Kd (MBI_CD19_2; (MOR208) [3]): < 0.001 nM
- Kd [4]: < 0.001 nM
- Kd [5]: 1.88 nM
- Kd (MBI_CD19_1; (SAR3419) [6]): < 0.001 nM
- Kd [7]: 3160 nM
- Kd (MBI_CD19_2; (MOR208) [8]): 0.452 nM
- Kd [9]: < 0.001 nM
- Kd [10]: 1.63 nM
- Kd (MBI_CD19_1; (SAR3419) [11]): 5.23 nM
- Kd [12]: 2.69 nM
- Kd (MBI_CD19_2; (MOR208) [13]): < 0.001 nM
